# Source: patent US20210380703A1 (RIGEL PHARMACEUTICALS, published 2021)
# Numbering of substitutions follows the chain as printed.
# B1: 367_D06 (antibody, V domains shown)
# VH: EVQLLESGGGLVQPGGSLRLSCAASGFTFDSYSMNWVRQAPGKGLEWVAGINYNGGYTSYADSVKGRFTISRDNSKNTLYLQMNSLRAEDTAVYYCARGANWHDTHLDYWGQGTLVTVSS
# VL: DIQMTQSPSSLSASVGDRVTITCRASQSISTYLNWYQQKPGKAPKLVIYAATSLASGVPSRFSGSGSGTDFTLTISSLQPEDFATYYCQQSYNSPLTFGGGTKVEIK
# notes: Group III
# B2: 367_G01 (antibody, V domains shown)
# VH: B1 VH with S33G, G50S, G55S, S59G
# VL: B1 VL with T31S, L54R, N93D, S94L
# notes: Group III
# B3: 367_G04 (antibody, V domains shown)
# VH: B1 VH with D30S, G55S
# VL: B1 VL with S30L, T31S, L54R, N93D
# notes: Group III
# B4: 368_H02 (antibody, V domains shown)
# VH: B1 VH with D30S, S33G, G55S, H106A
# VL: B1 VL with S30V, L54R, N93E
# notes: Group III
# B5: 367_D08 (antibody, V domains shown)
# VH: B1 VH with D30S, S31D
# VL: B1 VL with S30L, T31S, L54R, A55H, Y92D, N93D, S94L
# notes: Group III
# B6: 368_H05 (antibody, V domains shown)
# VH: B1 VH with D30S, G50N, T58K
# VL: B1 VL with S30V, T31S, L33V, A51T, L54R, N93E
# notes: Group III
# B7: 368_A03 (antibody, V domains shown)
# VH: B1 VH with D30S, A49S, S59G
# VL: B1 VL with S30I, T31S, V47L, A51V, L54R, N93E, S94N
# notes: Group III
# B8: 369_D07 (antibody, V domains shown)
# VH: B1 VH with D30S, S33G, A49S, T58K
# VL: B1 VL with S30V, T31S, L54R, N93D, S94L
# notes: Group III
# B9: 368_E12 (antibody, V domains shown)
# VH: B1 VH with D30S, S31D, S33G
# VL: B1 VL with S30V, T31S, L33V, A51V, L54R, N93D
# notes: Group III
# B10: 369_C05 (antibody, V domains shown)
# VH: B1 VH with H106A
# VL: B1 VL with T31S, L33V, A51T, L54R, A55H
# notes: Group III
# B11: 367_H03 (antibody, V domains shown)
# VH: B1 VH with D30S, S33G, G55S
# VL: B1 VL with S30I, L33V, V47L, N93D, S94L
# notes: Group III
# B12: 368_C08 (antibody, V domains shown)
# VH: B1 VH with D30S, S31D, A49S
# VL: B1 VL with S30L, L33V, V47L, T52S, A55Q, N93S, S94T
# notes: Group III
# B13: 369_D03 (antibody, V domains shown)
# VH: B1 VH with D30S, A49S
# VL: B1 VL with S30L, L54R, N93E, S94N
# notes: Group III
# B14: 369_D09 (antibody, V domains shown)
# VH: B1 VH with D30S, S31D, S33G, A49S, G50N, H106A
# VL: B1 VL with S30L, V47L, L54R, N93D
# notes: Group III
# B15: 369_G08 (antibody, V domains shown)
# VH: B1 VH with A49S, G50S, T58K, S59G
# VL: not shown
# notes: Group III
# B16: 367_D12 (antibody, V domains shown)
# VH: B1 VH with D30S, A49S, G50S, S59G
# VL: B1 VL with S30V, T31S, L33V, L54R, N93E
# notes: Group III
# B17: 368_A04 (antibody, V domains shown)
# VH: B1 VH with S31D, T58K
# VL: B1 VL with S30L, A51V, L54R, N93E, S94L
# notes: Group III
# B18: 367_F01 (antibody, V domains shown)
# VH: B1 VH with A49S, G50N, T58K
# VL: not shown
# notes: Group III
# B19: 369_B05 (antibody, V domains shown)
# VH: B1 VH with A49S, T58K
# VL: B1 VL with S30I, T31S, V47L, N93D, S94T
# notes: Group III
# B20: 368_F09 (antibody, V domains shown)
# VH: B1 VH with D30S, S33G, A49S, G55S
# VL: B1 VL with S30L, V47L, T52S, A55Q, N93E, S94T
# notes: Group III
# B21: 367_E05 (antibody, V domains shown)
# VH: B1 VH with D30S, S33G
# VL: B1 VL with S30L, T31S, V47L, L54R, A55H, N93D
# notes: Group III
# B22: 369_A07 (antibody, V domains shown)
# VH: B1 VH with D30S, T58K, S59G, H106A
# VL: B1 VL with S30L, T31S, L54R, N93E
# notes: Group III
# B23: 368_B09 (antibody, V domains shown)
# VH: B1 VH with S33G, A49S, G50N, T58K, S59G
# VL: B1 VL with S30L, T31S, V47L, L54R, A55H, N93D, S94T
# notes: Group III
# B24: 367_H02 (antibody, V domains shown)
# VH: B1 VH with S33G, A49S, G50S, S59G
# VL: not shown
# notes: Group III
# B25: 369_E06 (antibody, V domains shown)
# VH: B1 VH with D30S, S33G, A49S, H106A
# VL: B1 VL with S30I, T31S, L54R, A55H, N93D
# notes: Group III
# Target: T1, biotinylated goat anti-human kappa light chain
# T1 construct: positive control of the ELISA
# Assay: ELISA, positive control
# Method: The binding of ACVR2A-specific monoclonal antibodies to human ACVR2A, mouse ACVR2A, biotinylated goat anti-human kappa light chain (positive control) and human Fc (negative control) were determined by ELISA.
# Note: test concentration or dose not given here.
row,optical density [OD],Binder
1,3.25,B1
2,3.58,B2
3,3.36,B3
4,3.58,B4
5,3.5,B5
6,3.34,B6
7,3.41,B7
8,3.26,B8
9,3.65,B9
10,3.02,B10
11,3.34,B11
12,3.38,B12
13,3.61,B13
14,3.45,B14
15,3.58,B15
16,3.57,B16
17,3.56,B17
18,3.72,B18
19,3.44,B19
20,3.58,B20
21,3.47,B21
22,3.42,B22
23,3.43,B23
24,3.62,B24
25,3.52,B25

# Target: T2, human ACVR2A (human, UniProt P27037 20-135, limits assumed)
# T2 construct: coated antigen of the initial ELISA; also called activin receptor, type II A
# T2 sequence (P27037 20-135 limits assumed): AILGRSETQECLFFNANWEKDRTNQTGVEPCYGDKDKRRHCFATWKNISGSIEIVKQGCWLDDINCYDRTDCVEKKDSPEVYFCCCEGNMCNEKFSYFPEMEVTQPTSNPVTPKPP
# Assay: ELISA
# Outline: (§1)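 mAb binding by ELISA; antigens: hu ACVR2A, mu ACVR2A; pos ctrl biotinylated goat anti-hu kappa LC; neg ctrl hu Fc.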
row,optical density [OD],Binder
1,2.04,B1
2,1.8,B2
3,2.98,B3
4,2.41,B4
5,2.18,B5
6,1.95,B6
7,2.83,B7
8,3.07,B8
9,1.29,B9
10,2.54,B10
11,2.04,B11
12,2.26,B12
13,3.28,B13
14,3.3,B14
15,3.3,B15
16,2.44,B16
17,2.35,B17
18,2.42,B18
19,2.78,B19
20,2.39,B20
21,2.35,B21
22,3.55,B22
23,2.54,B23
24,1.08,B24
25,3.13,B25

# Target: T3, mouse ACVR2A (mouse, UniProt P27038 20-135, limits assumed)
# T3 construct: coated antigen of the initial ELISA
# T3 sequence (P27038 20-135 limits assumed): as the sequence (P27037 20-135 limits assumed) above, with K20R, V73I counted along it
# Assay: ELISA
# Outline: as §1
row,optical density [OD],Binder
1,2.35,B1
2,1.94,B2
3,3.04,B3
4,2.54,B4
5,2.37,B5
6,2.2,B6
7,2.83,B7
8,2.91,B8
9,1.55,B9
10,2.72,B10
11,2.2,B11
12,2.43,B12
13,3.55,B13
14,3.05,B14
15,3.49,B15
16,2.69,B16
17,2.35,B17
18,2.76,B18
19,3.06,B19
20,2.45,B20
21,2.64,B21
22,3.56,B22
23,2.81,B23
24,1.2,B24
25,3.11,B25
